Columns and labels:
[1] = target: recombinant human Pol δ core dimer (p125/p50) (human) (UniProt P28340)
[2] = target: recombinant human Pol δ core+p12 trimer (p125/p50/p12) (human) (UniProt P28340)
[3] = target: recombinant human Pol δ core+p68 trimer (p125/p50/p68) (human) (UniProt P28340)
[4] = target: recombinant human Pol δ holoenzyme (heterotetramer p125/p50/p68/p12) (human) (UniProt P28340)
Chain of recombinant human Pol δ holoenzyme (heterotetramer p125/p50/p68/p12) (human) (P28340 whole entry, stated change not applied, chain 1 of 4): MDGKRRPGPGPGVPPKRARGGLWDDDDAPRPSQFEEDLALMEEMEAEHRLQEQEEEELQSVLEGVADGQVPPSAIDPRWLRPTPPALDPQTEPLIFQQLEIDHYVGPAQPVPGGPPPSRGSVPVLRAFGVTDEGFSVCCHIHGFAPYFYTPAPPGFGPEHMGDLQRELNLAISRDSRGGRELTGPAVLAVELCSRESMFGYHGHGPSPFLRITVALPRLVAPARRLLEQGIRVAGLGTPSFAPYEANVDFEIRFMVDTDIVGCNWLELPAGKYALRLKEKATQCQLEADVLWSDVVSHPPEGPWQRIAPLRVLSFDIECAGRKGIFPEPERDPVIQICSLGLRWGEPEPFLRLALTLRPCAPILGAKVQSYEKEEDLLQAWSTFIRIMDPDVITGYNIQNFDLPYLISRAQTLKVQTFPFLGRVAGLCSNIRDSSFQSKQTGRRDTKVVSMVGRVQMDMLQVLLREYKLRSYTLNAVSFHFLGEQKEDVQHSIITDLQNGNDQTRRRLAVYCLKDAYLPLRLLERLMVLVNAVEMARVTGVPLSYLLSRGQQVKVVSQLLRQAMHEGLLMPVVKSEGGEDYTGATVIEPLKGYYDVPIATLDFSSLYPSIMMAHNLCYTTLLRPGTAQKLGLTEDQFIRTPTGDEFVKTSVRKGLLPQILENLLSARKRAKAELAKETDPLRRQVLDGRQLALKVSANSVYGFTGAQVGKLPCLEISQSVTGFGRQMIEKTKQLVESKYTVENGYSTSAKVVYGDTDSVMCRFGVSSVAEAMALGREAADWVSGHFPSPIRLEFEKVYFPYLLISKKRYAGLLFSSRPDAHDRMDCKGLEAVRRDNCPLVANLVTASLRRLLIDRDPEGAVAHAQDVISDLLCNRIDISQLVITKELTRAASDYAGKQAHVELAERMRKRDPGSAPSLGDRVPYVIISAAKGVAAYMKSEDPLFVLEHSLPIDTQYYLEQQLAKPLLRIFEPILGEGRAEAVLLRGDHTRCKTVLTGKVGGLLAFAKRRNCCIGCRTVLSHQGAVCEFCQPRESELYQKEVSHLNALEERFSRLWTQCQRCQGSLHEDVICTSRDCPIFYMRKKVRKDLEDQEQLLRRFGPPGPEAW
Chain of recombinant human Pol δ holoenzyme (heterotetramer p125/p50/p68/p12) (human) (P49005 whole entry, stated change not applied, chain 2 of 4, further chain): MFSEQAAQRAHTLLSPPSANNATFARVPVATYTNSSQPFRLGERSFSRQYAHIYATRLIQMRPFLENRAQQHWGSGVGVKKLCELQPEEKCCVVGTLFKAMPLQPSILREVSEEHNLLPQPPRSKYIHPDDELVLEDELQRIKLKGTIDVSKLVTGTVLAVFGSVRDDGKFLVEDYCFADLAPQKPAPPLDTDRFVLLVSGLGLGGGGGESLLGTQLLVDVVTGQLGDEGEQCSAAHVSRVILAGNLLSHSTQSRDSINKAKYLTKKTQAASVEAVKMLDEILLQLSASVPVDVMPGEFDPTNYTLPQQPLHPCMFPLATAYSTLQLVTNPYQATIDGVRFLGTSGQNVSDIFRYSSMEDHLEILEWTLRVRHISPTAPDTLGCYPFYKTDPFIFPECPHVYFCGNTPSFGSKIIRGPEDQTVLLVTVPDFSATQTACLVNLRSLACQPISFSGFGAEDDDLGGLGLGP
Chain of recombinant human Pol δ holoenzyme (heterotetramer p125/p50/p68/p12) (human) (Q15054 whole entry, stated change not applied, chain 3 of 4, further chain): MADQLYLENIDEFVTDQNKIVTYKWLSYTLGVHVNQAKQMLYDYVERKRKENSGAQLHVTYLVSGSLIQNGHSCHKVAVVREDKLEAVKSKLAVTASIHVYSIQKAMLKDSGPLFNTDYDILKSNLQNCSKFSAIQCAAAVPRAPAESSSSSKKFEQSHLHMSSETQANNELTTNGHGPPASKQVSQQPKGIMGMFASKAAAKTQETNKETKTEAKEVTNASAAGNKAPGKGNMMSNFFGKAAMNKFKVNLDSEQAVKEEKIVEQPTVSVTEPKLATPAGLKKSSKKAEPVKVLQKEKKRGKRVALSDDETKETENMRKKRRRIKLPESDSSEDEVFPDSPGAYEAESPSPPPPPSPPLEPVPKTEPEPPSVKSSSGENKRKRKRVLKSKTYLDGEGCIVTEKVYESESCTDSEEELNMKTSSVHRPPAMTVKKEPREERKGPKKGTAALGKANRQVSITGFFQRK
Chain of recombinant human Pol δ holoenzyme (heterotetramer p125/p50/p68/p12) (human) (Q9HCU8 whole entry, stated change not applied, chain 4 of 4, further chain): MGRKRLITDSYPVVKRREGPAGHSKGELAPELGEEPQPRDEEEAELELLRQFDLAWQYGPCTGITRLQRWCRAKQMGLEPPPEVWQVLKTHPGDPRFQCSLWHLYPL

Chain of recombinant human PCNA (Proliferating Cell Nuclear Antigen) (P12004 whole entry): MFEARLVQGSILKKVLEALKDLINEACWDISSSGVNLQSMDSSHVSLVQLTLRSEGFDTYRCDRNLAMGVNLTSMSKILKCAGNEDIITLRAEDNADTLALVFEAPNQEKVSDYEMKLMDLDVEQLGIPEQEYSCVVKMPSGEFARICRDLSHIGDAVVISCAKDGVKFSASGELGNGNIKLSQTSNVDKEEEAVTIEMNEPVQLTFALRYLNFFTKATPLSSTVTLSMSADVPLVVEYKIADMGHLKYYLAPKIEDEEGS
Chain of recombinant human Pol δ core+p12 trimer (p125/p50/p12) (human) (P28340 whole entry, stated change not applied, chain 1 of 3): as the sequence (P28340 whole entry, stated change not applied, chain 1 of 4) above
Chain of recombinant human Pol δ core+p12 trimer (p125/p50/p12) (human) (P49005 whole entry, stated change not applied, chain 2 of 3, further chain): as the sequence (P49005 whole entry, stated change not applied, chain 2 of 4, further chain) above
Chain of recombinant human Pol δ core+p12 trimer (p125/p50/p12) (human) (Q9HCU8 whole entry, stated change not applied, chain 3 of 3, further chain): as the sequence (Q9HCU8 whole entry, stated change not applied, chain 4 of 4, further chain) above
Chain of recombinant human Pol δ core dimer (p125/p50) (human) (P28340 whole entry, stated change not applied, chain 1 of 2): as the sequence (P28340 whole entry, stated change not applied, chain 1 of 4) above
Chain of recombinant human Pol δ core dimer (p125/p50) (human) (P49005 whole entry, stated change not applied, chain 2 of 2, further chain): as the sequence (P49005 whole entry, stated change not applied, chain 2 of 4, further chain) above
Chain of recombinant human Pol δ core+p68 trimer (p125/p50/p68) (human) (P28340 whole entry, stated change not applied, chain 1 of 3): as the sequence (P28340 whole entry, stated change not applied, chain 1 of 4) above
Chain of recombinant human Pol δ core+p68 trimer (p125/p50/p68) (human) (P49005 whole entry, stated change not applied, chain 2 of 3, further chain): as the sequence (P49005 whole entry, stated change not applied, chain 2 of 4, further chain) above
Chain of recombinant human Pol δ core+p68 trimer (p125/p50/p68) (human) (Q15054 whole entry, stated change not applied, chain 3 of 3, further chain): as the sequence (Q15054 whole entry, stated change not applied, chain 3 of 4, further chain) above

recombinant human PCNA (Proliferating Cell Nuclear Antigen) (from UniProt P12004 1-261) (natural protein)
apparent Kd for PCNA: PCNA concentration for half-maximal stimulation of polymerase activity on poly(dA)/oligo(dT), hyperbolic fit [1]: 73 nM trimer | apparent Kd for PCNA: PCNA concentration for half-maximal stimulation of polymerase activity on poly(dA)/oligo(dT), hyperbolic fit [2]: 8.7 nM trimer | apparent Kd for PCNA: PCNA concentration for half-maximal stimulation of polymerase activity on poly(dA)/oligo(dT), hyperbolic fit [3]: 9.3 nM trimer | apparent Kd for PCNA: PCNA concentration for half-maximal stimulation of polymerase activity on poly(dA)/oligo(dT), hyperbolic fit [4]: 7.1 nM trimer
